Data from publication PMC6437178.

Molecular target: engineered Salmo salar Ctr1 crystallization construct sCtr1_(cryst) (Salmo salar | not stated)
Assay: crystal structure; hanging-drop vapor diffusion at 20 °C; 26-28% PEG 400, 50 mM zinc acetate, 50 mM sodium cacodylate pH 5.9; protein in CYMAL-5; Cu^+-free (3.0 Å) and Cu^+-bound (3.2 Å) states; trimer on the crystallographic three-fold axis

For “engineered Salmo salar Ctr1 crystallization construct sCtr1_(cryst) (from UniProt A0A1S3KYH5 41-93; A0A1S3KYH5 121-184)”, the stoichiometry N was 3.
